The source of these data is patent publication EP4692118A1.

Assay [1] concerns the target ADAM9 on human tumour cells (LS174T, HepG2, Calu-3, Colo205) (human) (UniProt Q13443). The assay is described as follows: flow cytometry on HepG2 cells, 250 nM, negative control. For orientation: In flow cytometry, cells or beads pass a laser one at a time.
Assay [2] has the same target. The assay is described as follows: flow cytometry on LS174T cells, 0.015259 nM, negative control.
The target is the same in assay [3]. The experiment in a line: flow cytometry on LS174T cells, 0.244141 nM, negative control.
Assay [4] has the same target. The assay is described as follows: flow cytometry on LS174T cells, 0.003815 nM, negative control.
Assay [5] shares this target. The assay is described as follows: flow cytometry on HepG2 cells, 0.976563 nM, negative control.
For assay [6] the target is unchanged. The assay is described as follows: flow cytometry on HepG2 cells, 0.061035 nM, negative control.
The target is the same in assay [7]. The experiment in a line: flow cytometry on LS174T cells, 0.000954 nM, negative control.
Assay [8] shares this target. The assay is described as follows: flow cytometry on LS174T cells, 1000 nM, negative control.
The target is the same in assay [9]. The experiment in a line: flow cytometry on HepG2 cells, 3.906250 nM, negative control.
For assay [10] the target is unchanged. The assay is described as follows: flow cytometry on LS174T cells, 0.061035 nM, negative control.
Assay [11] has the same target. The experiment in a line: flow cytometry on LS174T cells, 62.5 nM, negative control.
For assay [12] the target is unchanged. The experiment in a line: flow cytometry on HepG2 cells, 0.015259 nM, negative control.
Assay [13] shares this target. The experiment in a line: flow cytometry on LS174T cells, 250 nM, negative control.
Assay [14] has the same target. The assay is described as follows: flow cytometry on HepG2 cells, 1000 nM, negative control.
The target is the same in assay [15]. The experiment in a line: flow cytometry on HepG2 cells, 0.003815 nM, negative control.
Assay [16] shares this target. The assay is described as follows: flow cytometry on HepG2 cells, 15.625 nM, negative control.
For assay [17] the target is unchanged. The experiment in a line: flow cytometry on HepG2 cells, 0.000954 nM, negative control.
Assay [18] shares this target. The assay is described as follows: flow cytometry on HepG2 cells, 0.000238 nM, negative control.
Assay [19] has the same target. The experiment in a line: flow cytometry on HepG2 cells, 62.5 nM, negative control.
For assay [20] the target is unchanged. The experiment in a line: flow cytometry on LS174T cells, 3.906250 nM, negative control.
Assay [21] shares this target. The experiment in a line: flow cytometry on HepG2 cells, 0.244141 nM, negative control.
The target is the same in assay [22]. The assay is described as follows: flow cytometry on LS174T cells, 0.976563 nM, negative control.
For assay [23] the target is unchanged. The assay is described as follows: flow cytometry on LS174T cells, 15.625 nM, negative control.
The target is the same in assay [24]. The experiment in a line: flow cytometry on LS174T cells, 0.015259 nM.
Assay [25] has the same target. The experiment in a line: flow cytometry on LS174T cells, 3.906250 nM.
Assay [26] shares this target. The assay is described as follows: flow cytometry on LS174T cells, 0.003815 nM.
For assay [27] the target is unchanged. The experiment in a line: cell-based or functional assay.
Assay [28] shares this target. The assay is described as follows: flow cytometry on LS174T cells, 0.244141 nM.
Assay [29] shares this target. The experiment in a line: flow cytometry on LS174T cells, 62.5 nM.
Assay [30] shares this target. The experiment in a line: flow cytometry on LS174T cells, 0.061035 nM.
The target is the same in assay [31]. The experiment in a line: flow cytometry on LS174T cells, 250 nM.
The target is the same in assay [32]. The experiment in a line: flow cytometry on LS174T cells, 15.625 nM.
Assay [33] has the same target. The experiment in a line: flow cytometry on LS174T cells, 1000 nM.
Assay [34] has the same target. The experiment in a line: flow cytometry on LS174T cells, 0.976563 nM.
Assay [35] shares this target. The assay is described as follows: flow cytometry on LS174T cells, 0.000954 nM.
For assay [36] the target is unchanged. The experiment in a line: flow cytometry on HepG2 cells, 1000 nM.
The target is the same in assay [37]. The assay is described as follows: flow cytometry on HepG2 cells, 0.000238 nM.
Assay [38] shares this target. The assay is described as follows: flow cytometry on HepG2 cells, 0.244141 nM.
Assay [39] shares this target. The assay is described as follows: flow cytometry on HepG2 cells, 0.976563 nM.
Assay [40] has the same target. The experiment in a line: flow cytometry on HepG2 cells, 15.625 nM.
The target is the same in assay [41]. The experiment in a line: flow cytometry on HepG2 cells, 62.5 nM.
Assay [42] shares this target. The assay is described as follows: flow cytometry on HepG2 cells, 0.000954 nM.
For assay [43] the target is unchanged. The experiment in a line: flow cytometry on HepG2 cells, 3.906250 nM.
Assay [44] has the same target. The assay is described as follows: flow cytometry on HepG2 cells, 0.003815 nM.
Assay [45] has the same target. The assay is described as follows: flow cytometry on HepG2 cells, 250 nM.
Assay [46] shares this target. The experiment in a line: flow cytometry on HepG2 cells, 0.015259 nM.
Assay [47] shares this target. The assay is described as follows: flow cytometry on HepG2 cells, 0.061035 nM.

Sequence of ADAM9 on human tumour cells (LS174T, HepG2, Calu-3, Colo205) (human) (Q13443 29-819): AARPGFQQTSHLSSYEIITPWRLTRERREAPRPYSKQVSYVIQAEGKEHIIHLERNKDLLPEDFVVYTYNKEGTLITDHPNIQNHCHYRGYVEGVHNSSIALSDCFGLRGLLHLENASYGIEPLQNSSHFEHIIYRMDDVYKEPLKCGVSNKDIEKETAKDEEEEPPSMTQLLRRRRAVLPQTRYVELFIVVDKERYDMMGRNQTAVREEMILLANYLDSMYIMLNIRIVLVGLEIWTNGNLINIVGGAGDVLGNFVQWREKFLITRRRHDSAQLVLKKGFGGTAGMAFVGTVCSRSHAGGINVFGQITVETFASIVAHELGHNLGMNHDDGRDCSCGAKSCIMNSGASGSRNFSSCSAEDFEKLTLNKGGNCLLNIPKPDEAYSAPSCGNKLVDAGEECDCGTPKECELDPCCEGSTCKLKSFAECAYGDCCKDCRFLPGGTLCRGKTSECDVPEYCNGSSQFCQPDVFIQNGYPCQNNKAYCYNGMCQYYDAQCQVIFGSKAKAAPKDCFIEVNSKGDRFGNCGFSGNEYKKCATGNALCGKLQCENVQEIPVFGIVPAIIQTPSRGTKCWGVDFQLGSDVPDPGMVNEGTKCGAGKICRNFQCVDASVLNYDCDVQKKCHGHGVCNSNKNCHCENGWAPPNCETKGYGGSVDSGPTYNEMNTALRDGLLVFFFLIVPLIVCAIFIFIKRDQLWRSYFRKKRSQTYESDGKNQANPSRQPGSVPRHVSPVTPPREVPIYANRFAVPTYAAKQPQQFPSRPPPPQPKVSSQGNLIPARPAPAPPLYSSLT

For “anti-HIV human IgG antibody (iso-IgG1, produced by WuXi AppTec)”, the Mean fluorescence intensity (MFI) in assay [1] was 389; in assay [5] it was 360; in [6] it was 377; in assay [9], 361; in [12], 371; in assay [14], 690. Further, the Mean fluorescence intensity (MFI) in [15] was found to be 349; in assay [16], 364; in assay [17], 365; in assay [18] it was 361; in assay [19] it was 386; in assay [21], 363. Besides, the Mean fluorescence intensity in assay [2] is 213; in [3], 208; in [4] it was 254; in assay [7], 220; in [8], 368; in assay [10] it was 202. Further, the Mean fluorescence intensity turned out to be 229 in [11]; 269 in assay [13]; 203 in assay [20]; 212 in [22]; 209 in assay [23].

B1: antibody-drug conjugate Ab16-X2 (antibody, human IgG1, kappa, V domains shown)
VH: QVQLQQPGTEVVKPGASVKLSCKASGFTFPLYWMHWVRQRPGRGLEWIGRIIPIFGHTKYNEKFKNKATLTADESSSTAYMELRSLTSDDSAVYYCARGGYYYYPREGFLDYWGQGTSVTVSS
VL: DIVMTQSPASLSVSPGERASISCRSSQSVDYSGDSYMNWYQQKPGQSPRLLIYAASDRESGVPDRFSGSGSGTDFTLKISRVEEEDAGTYYCQQSREDPFTFGQGTKVDIKR
modifications: linker-payload X2 (camptothecin type) conjugated after reduction with tris(2-carboxyethyl)phosphine; DAR p = 7.9; sites not given
Consider B1, for which the Mean fluorescence intensity in assay [24] was found to be 268; in [25], 2380; in assay [26], 219; in assay [28], 954; in [29], 2160; in assay [30] it was 447. For the same molecule, the Mean fluorescence intensity was 2130 in [31]; 2400 in assay [32]; 1130 in [33]; 1960 in assay [34]; 223 in assay [35]. In [27], this molecule gave an IC50 (nM) of proliferation inhibition, Calu-3 cells, CellTiter-Glo, 6 days of 3.83 nM. For the same molecule, the IC50 (nM) of proliferation inhibition, Colo205 cells, CellTiter-Glo, 6 days in [27] came to 29.8 nM. In [27], this molecule returned an IC50 (nM) of proliferation inhibition, LS174T cells, CellTiter-Glo, 6 days of 8.97 nM.

B2: antibody-drug conjugate Ab16-X1 (antibody, human IgG1, kappa, V domains shown)
VH: B1 VH
VL: B1 VL
modifications: linker-payload X1 (camptothecin type) conjugated after reduction with tris(2-carboxyethyl)phosphine; DAR p = 7.8; sites not given
With B2, the Mean fluorescence intensity (MFI) in [36] worked out at 17400; in [37], 370; in assay [38], 1090; in assay [39] it was 1790; in assay [40], 2960; in assay [41], 3290. Further, the Mean fluorescence intensity (MFI) in [42] is 376; in assay [43], 1780; in assay [44] it was 396; in assay [45], 16600; in assay [46], 451; in assay [47], 623. Also, the IC50 (nM) of proliferation inhibition, Calu-3 cells, CellTiter-Glo, 6 days in assay [27] was 8.6 nM.
